From patent publication US20240368281A1 (INNATE PHARMA, published 2024)

Assays:
[1] = target: T1, CD94/NKG2A on the cell surface (human, UniProt Q13241 1-179); assay: flow cytometry, titration on purified human NK cells; four-parameter fit, median of 5 donors
T1 construct: whole, on cells; also called Ba/F3-CD94/NKG2A; NKG2A+ cells
Procedure: Purified NK cells were prepared from frozen PBMC: Human NK purification with Stem Sep system, and cultured O/N in complete medium supplemented with 10 IU/ml recombinant IL-2. PBMC were prepared from collected blood. Blood was qualified for transfusion, donors were thus anonymous and supposedly healthy. PBMC were prepared, aliquoted and stored in nitrogen tanks prior to the study.
Calculations of Kd for receptor saturation and EC₅₀ for CD107 mobilization were performed in GraphPad Prism software using a non-linear regression fit with four parameters.

[2] = target: T2, single-chain NKG2A-CD94-mFc construct (human, UniProt Q13241 32-179, limits assumed); assay: SPR, Biacore T100; antigen amine-coupled to a CM5 chip, antibody injected at 0.157-2.5 nM
T2 construct: The order here follows the printed name only; also called recombinant NKG2A; not shown: mouse Fc (mFc)
T2 sequence (Q13241 other isoform, or with tags, fused parts or gaps limits assumed): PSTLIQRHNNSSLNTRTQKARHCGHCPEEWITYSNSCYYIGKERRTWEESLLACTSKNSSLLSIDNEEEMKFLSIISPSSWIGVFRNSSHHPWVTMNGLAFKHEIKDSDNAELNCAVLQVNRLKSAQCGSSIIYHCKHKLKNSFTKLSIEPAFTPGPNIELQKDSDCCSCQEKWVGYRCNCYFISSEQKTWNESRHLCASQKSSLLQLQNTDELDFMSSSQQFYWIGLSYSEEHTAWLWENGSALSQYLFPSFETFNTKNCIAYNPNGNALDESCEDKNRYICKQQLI
Procedure: Heavy chain frameworks included “VH1” based on VH1_18/JH6; “VH5” based on VH5_a; “VH6” based on VH5_51; “VH7” based on VH1_f; and “VH8” based on VH1_46, all with a JH6 J-segment. The antigen-binding properties were analyzed on a Biacore T100 (Biacore AB, Uppsala, Sweden). The antigen was in the form of a single-chain NKG2A-CD94-mFc construct was covalently immobilized on the sensor CM5 chip (Biacore AB, Uppsala, Sweden) via amine groups using 1-ethyl-3-(3-dimethylaminopropyl) carbodiimide hydrochloride (EDC) and N-hydroxysuccinimide (NHS). The immobilization level was targeted at 300 RU. Z270 antibody variants were diluted to a concentration series (0.157, 0.313, 0.625, 1.25, 2.5 nM) in the running buffer HBS-EP (10 mM HEPES pH 7.4, 150 mM NaCl, 3 mM EDTA, 0.005% (v/v) Tween-20). All the samples were then injected over the immobilized antigen for 2 min at the flow rate of 40 ul/min. Subsequently, the running buffer was injected for 3 min at 40 ul/min for antibody dissociation analysis. After each run, the regeneration buffer (10 mM NaOH, 500 mM NaCl) was injected (30 seconds, 10 ul/min) to completely strip the remaining antibodies off the antigen. Data were evaluated with Biacore T100 evaluation software.

[3] = target: T1, CD94/NKG2A on the cell surface; assay: flow cytometry (MESF), titration in human whole blood, gated on NKG2A+ lymphocytes
T1 sequence (chain, as listed by the source limits assumed, chain 1 of 2): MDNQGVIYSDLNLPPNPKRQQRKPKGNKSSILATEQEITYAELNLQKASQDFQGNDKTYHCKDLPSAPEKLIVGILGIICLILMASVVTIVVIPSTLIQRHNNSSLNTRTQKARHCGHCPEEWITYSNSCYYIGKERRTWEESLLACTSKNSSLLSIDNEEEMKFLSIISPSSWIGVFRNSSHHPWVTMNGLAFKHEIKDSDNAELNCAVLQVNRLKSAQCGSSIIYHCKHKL
T1 sequence (Q13241 whole entry, chain 2 of 2): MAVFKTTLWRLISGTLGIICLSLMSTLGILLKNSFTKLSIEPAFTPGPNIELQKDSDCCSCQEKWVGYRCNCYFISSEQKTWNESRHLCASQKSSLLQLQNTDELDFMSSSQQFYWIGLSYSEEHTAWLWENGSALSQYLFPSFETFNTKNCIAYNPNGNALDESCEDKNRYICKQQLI
Text: The affinity and total number of receptors may impact both pharmacokinetics (PK) and pharmacodynamics (PD) of the mAb in humans. […] Human whole blood was collected from each donor and processed immediately.

[4] = target: T1, CD94/NKG2A on the cell surface; assay: cell-based or functional assay

T1 sequence (chain, as listed by the source limits assumed, chain 1 of 2): as the sequence (chain, as listed by the source limits assumed, chain 1 of 2) above
T1 sequence (Q13241 whole entry, chain 2 of 2): as the sequence (Q13241 whole entry, chain 2 of 2) above

Kd [1]: 5 ng/mL
Kd [2]: 0.0665 nM
koff [2]: 0.000498 s⁻¹
kon [2]: 7.49e+06 M⁻¹ s⁻¹
EC50 [3]: ~4 ng/mL
KD for full receptor occupancy (the EC100) [3]: ~100 ng/mL
Kd [3]: ~4 ng/mL
EC50 concentration in the CD107 mobilization assay (purified NK cells against autologous SEB blasts) [4]: ~400 ng/ml
EC50 for CD107 mobilization on K562-HLA-E transfectants [4]: 4.1 µg/mL
median EC50 for CD107 mobilization (autologous SEB blasts) [4]: 0.4 µg/ml
B1: humZ270VL1/VH1 (antibody, human IgG4 S228P, kappa, V domains shown)
VH: QVQLVQSGAEVKKPGASVKVSCKASGYTFTSYWMNWVRQAPGQGLEWMGRIDPYDSETHYAQKLQGRVTMTTDTSTSTAYMELRSLRSDDTAVYYCARGGYDFDVGTLYWFFDVWGQGTTVTVSS
VL: DIQMTQSPSSLSASVGDRVTITCRASENIYSYLAWYQQKPGKAPKLLIYNAKTLAEGVPSRFSGSGSGTDFTLTISSLQPEDFATYYCQHHYGTPRTFGGGTKVEIKR
notes: also called humanized Z270 VH1; humZ270 VH1
